Key:
[1] = biological target: T1, human CEA on cells (MKN45, LOVO, NCI-H2122, LS174T, CT26/CEA) (human, UniProt P06731 35-685); assay: cell-based or functional assay
T1 sequence: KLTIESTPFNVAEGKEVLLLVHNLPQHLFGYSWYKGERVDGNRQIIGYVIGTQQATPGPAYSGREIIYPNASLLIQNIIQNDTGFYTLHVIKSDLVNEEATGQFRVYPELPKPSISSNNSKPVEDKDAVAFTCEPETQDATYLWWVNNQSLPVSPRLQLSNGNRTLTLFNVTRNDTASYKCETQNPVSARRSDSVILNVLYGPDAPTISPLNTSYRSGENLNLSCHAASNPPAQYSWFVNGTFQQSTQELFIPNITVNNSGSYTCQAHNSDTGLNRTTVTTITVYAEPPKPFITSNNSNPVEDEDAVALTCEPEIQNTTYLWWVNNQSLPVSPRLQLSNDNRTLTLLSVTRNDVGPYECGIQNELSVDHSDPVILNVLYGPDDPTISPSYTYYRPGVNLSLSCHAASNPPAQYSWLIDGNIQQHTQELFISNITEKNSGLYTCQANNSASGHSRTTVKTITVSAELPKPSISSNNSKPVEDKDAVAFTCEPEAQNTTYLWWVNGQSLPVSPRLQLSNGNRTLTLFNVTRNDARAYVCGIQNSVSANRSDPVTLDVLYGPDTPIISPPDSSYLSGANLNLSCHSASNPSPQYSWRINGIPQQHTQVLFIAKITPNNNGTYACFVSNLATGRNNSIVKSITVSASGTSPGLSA

[2] = biological target: T1, human CEA on cells (MKN45, LOVO, …); assay: flow cytometry on MKN45 cells
[3] = biological target: T2, chimeric construct (CHIM) (human); assay: SPR; binding to CHIM
T2 construct: CEACAM6 AA 1-273 joined to the membrane-peripheral region containing domain B3 of CEA (AA 596-687), C-terminal 6xHis; also called chimeric CEA
T2 chain: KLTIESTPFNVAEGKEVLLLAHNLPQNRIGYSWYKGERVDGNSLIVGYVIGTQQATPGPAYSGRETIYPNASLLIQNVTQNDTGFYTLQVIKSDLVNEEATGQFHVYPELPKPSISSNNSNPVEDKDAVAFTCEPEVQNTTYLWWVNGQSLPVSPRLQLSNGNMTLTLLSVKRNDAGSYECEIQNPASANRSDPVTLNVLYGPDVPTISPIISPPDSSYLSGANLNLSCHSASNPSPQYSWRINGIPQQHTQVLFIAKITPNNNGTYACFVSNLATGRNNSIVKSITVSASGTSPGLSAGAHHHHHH

[4] = biological target: T3, recombinant soluble human CEA (extracellular domain, AA 1-687 of huCEA, C-terminal 6xHis) (human, UniProt P06731 35-687); assay: SPR; kinetics on huCEA, IgG format
T3 construct: also called sCEA; soluble CEA
T3 sequence: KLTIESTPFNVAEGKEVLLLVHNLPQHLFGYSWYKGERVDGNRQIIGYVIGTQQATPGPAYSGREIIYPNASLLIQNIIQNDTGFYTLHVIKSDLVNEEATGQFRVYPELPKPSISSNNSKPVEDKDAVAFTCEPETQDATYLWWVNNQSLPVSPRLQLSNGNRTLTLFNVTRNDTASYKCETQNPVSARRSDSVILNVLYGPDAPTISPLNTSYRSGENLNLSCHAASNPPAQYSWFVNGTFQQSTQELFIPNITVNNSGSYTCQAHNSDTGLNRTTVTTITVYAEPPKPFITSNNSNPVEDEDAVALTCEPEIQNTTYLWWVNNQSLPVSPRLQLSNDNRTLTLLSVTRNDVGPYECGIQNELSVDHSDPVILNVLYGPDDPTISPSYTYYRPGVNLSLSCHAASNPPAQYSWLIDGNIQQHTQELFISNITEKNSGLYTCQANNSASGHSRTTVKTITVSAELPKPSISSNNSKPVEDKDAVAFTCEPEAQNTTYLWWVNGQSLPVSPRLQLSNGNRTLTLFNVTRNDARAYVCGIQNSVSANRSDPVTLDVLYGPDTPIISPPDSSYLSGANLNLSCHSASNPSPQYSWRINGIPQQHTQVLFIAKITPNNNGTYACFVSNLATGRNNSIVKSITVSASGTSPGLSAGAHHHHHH

[5] = biological target: T1, human CEA on cells (MKN45, LOVO, …); assay: flow cytometry on MKN45 cells, Alexa Fluor 647 anti-human IgG Fc
Experimental: For flow cytometry, CEA-expressing MKN45 cells (10^5 cells/well) were incubated with various concentrations of purified affinity-matured antibodies, followed by binding with Alexa Fluor-647-labeled anti-hu IgG Fc antibody (Cat. No. 409320, BioLegend, USA). Cell fluorescence was quantified using a flow cytometer (Guava easyCyte™ 8HT, Merck-Millipore, USA).

[6] = biological target: T4, CEA (Homo sapiens, UniProt P06731); assay: Binding of humanized and PTM-engineered BGA7592 variants compared to BGA7592-1
T4 sequence (P06731 35-676): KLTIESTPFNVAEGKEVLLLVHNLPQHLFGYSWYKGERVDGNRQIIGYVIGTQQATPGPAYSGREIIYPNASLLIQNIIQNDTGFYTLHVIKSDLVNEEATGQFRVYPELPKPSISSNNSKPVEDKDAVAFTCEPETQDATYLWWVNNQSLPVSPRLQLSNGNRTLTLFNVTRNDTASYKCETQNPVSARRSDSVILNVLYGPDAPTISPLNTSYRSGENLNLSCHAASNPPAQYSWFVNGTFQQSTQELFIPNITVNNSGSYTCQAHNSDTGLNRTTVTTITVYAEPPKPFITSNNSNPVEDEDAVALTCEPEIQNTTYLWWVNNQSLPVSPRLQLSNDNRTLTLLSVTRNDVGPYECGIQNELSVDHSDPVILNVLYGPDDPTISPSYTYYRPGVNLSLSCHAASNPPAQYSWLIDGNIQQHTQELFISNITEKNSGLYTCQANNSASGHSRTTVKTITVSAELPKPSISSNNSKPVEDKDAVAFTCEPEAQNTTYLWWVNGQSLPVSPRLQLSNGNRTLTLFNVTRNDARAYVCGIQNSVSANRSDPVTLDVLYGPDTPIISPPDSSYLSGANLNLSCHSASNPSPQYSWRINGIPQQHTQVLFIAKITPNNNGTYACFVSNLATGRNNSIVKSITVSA
Description: Using BGA7592-1, an additional number of single or multiple amino acid changes were made, converting the human residues in framework regions of VH and VL to corresponding murine germline residues, which include V68A, R72A and V79A in VH and V43S in VL, respectively. This resulted BGA7592-2 (V68A, R72A in VH), BGA7592-3 (V79A in VH), BGA7592-4 (V68A, R72A, V79A in VH), BGA7592-5 (V43S in VL), BGA7592-6 (V68A, R72A in VH, and V43S in VL), BGA7592-7 (V79A in VH, V43S in VL) and BGA7592-8 (V68A, R72A, V79A, in VH and V43S in VL). All antibodies which contained modifications had similar binding activities to BGA7592-1, and none of the changes abolished binding.
In order to remove post-translational modification (PTM) sites, further engineering was made by introducing mutations in CDRs and framework regions based on the BGA75921 sequence, which include N52T, N54Q, N59S, N102G, N104Q and S61A amino acid changes in the VH region. […] While maintaining specificity, amino acid compositions and expression levels were also considered. All humanization mutations were made using primers containing mutations at specific positions and a site directed mutagenesis kit (Cat. FM 111-02, TransGen, Beijing, China). The desired mutations were verified by sequence analysis.

[7] = biological target: T5, CEA (Homo sapiens, UniProt P06731); assay: SPR affinity measurement of BGA6710 variants; assay type: binding; conditions: BGA6710 variants in IgG format
T5 construct: 6xHis (C)
T5 sequence (P06731 with tags, fused parts or gaps limits assumed): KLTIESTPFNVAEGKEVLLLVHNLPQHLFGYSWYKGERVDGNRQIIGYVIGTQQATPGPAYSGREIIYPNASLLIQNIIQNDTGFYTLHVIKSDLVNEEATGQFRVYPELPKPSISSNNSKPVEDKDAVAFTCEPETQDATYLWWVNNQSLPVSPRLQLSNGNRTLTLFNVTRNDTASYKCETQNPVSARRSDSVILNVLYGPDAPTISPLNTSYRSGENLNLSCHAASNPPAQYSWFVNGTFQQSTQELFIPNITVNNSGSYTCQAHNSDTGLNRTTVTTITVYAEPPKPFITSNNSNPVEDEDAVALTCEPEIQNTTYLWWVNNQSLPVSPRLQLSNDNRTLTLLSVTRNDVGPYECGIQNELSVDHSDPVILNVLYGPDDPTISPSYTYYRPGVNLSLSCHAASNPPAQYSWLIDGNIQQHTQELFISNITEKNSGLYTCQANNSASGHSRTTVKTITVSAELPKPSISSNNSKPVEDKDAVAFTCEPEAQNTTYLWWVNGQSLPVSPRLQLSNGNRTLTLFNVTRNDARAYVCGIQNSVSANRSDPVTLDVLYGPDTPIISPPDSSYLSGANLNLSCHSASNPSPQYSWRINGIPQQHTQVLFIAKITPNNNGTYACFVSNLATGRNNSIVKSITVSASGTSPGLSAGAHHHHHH
Description: To further improve the biochemical/biophysical properties, optimization of BGA6710 was made by introducing substitutions in CDR and framework regions (Table 13). The large, hydrophobic residues were chosen and changed to polar residues, except for K13 and Q53, which are selected based on observed differences among human VH germlines. The considerations include amino acid compositions, heat stability (Tm), surface hydrophobicity and isoelectronic points (pIs) while maintaining functional activities. The variants were expressed in Fab format by cloning into the vector pCANTAB-5E as described in Example 6. The Fab-containing supernatants were then screened by ELISA and SPR analysis for CEA binding.
Thus, the BGA6710 variants in IgG format with single identified mutation or combinations were expressed and purified as described in Example 8.

[8] = biological target: T2, chimeric construct (CHIM); assay: SPR (BIAcore T-200); antibody captured by anti-murine IgG, antigen flowed
Experimental: (§1) Briefly, anti-murine IgG antibody was immobilized on an activated CM5 biosensor chip (Cat. No. BR100530, GE Life Sciences). Purified murine antibodies were flowed over the chip surface and captured by anti-murine IgG antibody. […] The equilibrium dissociation constant (KD) was calculated as the ratio koff/kₒₙ.

[9] = biological target: T6, CEA variant (CEA-v) (human, UniProt P06731 35-687); assay: as above
T6 construct: Splice-variant construct made by overlap PCR of CEA AA 1-78 and AA 398-687, C-terminal 6xHis; also called sCEA-v
T6 sequence: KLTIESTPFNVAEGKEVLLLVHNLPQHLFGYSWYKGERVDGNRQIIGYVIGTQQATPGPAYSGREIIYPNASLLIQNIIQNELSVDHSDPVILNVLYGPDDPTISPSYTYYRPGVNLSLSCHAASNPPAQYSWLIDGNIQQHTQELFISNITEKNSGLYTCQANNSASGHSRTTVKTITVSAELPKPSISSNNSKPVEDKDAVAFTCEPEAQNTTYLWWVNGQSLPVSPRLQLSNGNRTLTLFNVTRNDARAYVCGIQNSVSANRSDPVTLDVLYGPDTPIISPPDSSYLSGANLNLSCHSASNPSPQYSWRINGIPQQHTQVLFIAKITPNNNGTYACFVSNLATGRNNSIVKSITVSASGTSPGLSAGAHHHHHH
Experimental: as §1

B1: BGA6710 (antibody, human IgG1, V domains shown)
VH: QVQLVQSGAEVKKPGASVKVSCKASGYIFTSYYLHWVRQAPGQGLEWIGYINPQTGYTSYAQKFQGRVTMTRDTSTSTVYMELSSLRSEDTAVYYCAREYGNYNYPLDYWGQGTLVTVSS
VL: DIQMTQSPSSLSASVGDRVTITCRASENQYGYLAWYQQKPGKVPKLLIYNYKNLVEGVPSRFSGSGSGTDFTLTISSLQPEDVATYYCQHHLGTPYTFGQGTKVEIK
notes: BGA2433 with W33Y (VH) and T51Y (VL); wild-type human IgG1 format
For B1, which “ADCC (LDH release), NK92MI/CD16V effector cells with CT26 cells expressing CEA, EC50” value [1] is on record?
Its value is ~0.0067 µg/mL.

And the EC50 [2]?
The EC50 was 0.49 µg/mL.

And the Top [2]?
Its Top is 919.

And the Kd [3]?
The Kd was 15.1 nM.

And the koff [3]?
Its koff is 0.000475 s⁻¹.

What about the kon [3] of the same molecule?
Its kon is 31500 M⁻¹ s⁻¹.

What about the Kd [4] of the same molecule?
The Kd was 1.49 nM.

And the koff [4]?
The koff was 0.000169 s⁻¹.

And the kon [4]?
Its kon is 113000 M⁻¹ s⁻¹.

And the “EC50 (read off the curve)” value [5]?
Its value is ~0.5 µg/mL.

B2: BGA7592-1F: "BGA7592-1F (N54Q, N59S, S61 A (VH))"; humanized, "no glycosylation sites but had a high expression level" (antibody, V domains shown)
VH: QVQLVQSGAEVKKPGASVKVSCKASGYIFTSYWLHWVRQAPGQGLEWIGYINPQTGYTSYAQKFQGRVTMTRDTSTSTVYMELSSLRSEDTAVYYCAREYGNYNYPLDYWGQGTLVTVSS
VL: DIQMTQSPSSLSASVGDRVTITCRASENIYGYLAWYQQKPGKVPKLLIYNAKNLVEGVPSRFSGSGSGTDFTLTISSLQPEDVATYYCQHHYGTPYTFGQGTKVEIK
With B2 as the molecule, how does the “binding affinities compared to BGA7592-1” value [6] read?
The value was “significantly reduced binding affinities”.

B3: L92E: BGA6710 variant in IgG format, L92E in the light chain, "slightly reduces the binding affinity to CEA" (antibody, V domains shown)
VH: QVQLVQSGAEVKKPGASVKVSCKASGYIFTSYYLHWVRQAPGQGLEWIGYINPQTGYTSYAQKFQGRVTMTRDTSTSTVYMELSSLRSEDTAVYYCAREYGNYNYPLDYWGQGTLVTVSS
VL: DIQMTQSPSSLSASVGDRVTITCRASENQYGYLAWYQQKPGKVPKLLIYNYKNLVEGVPSRFSGSGSGTDFTLTISSLQPEDVATYYCQHHEGTPYTFGQGTKVEIK
B3 was tested. Which “Kinetics (huCEA) ka” value [7] did it give?
The value was 41700 M⁻¹ s⁻¹.

What about the “Kinetics (huCEA) kd” value [7] of the same molecule?
Its value is 0.000188 s⁻¹.

B4: BGA7592 (antibody, V domains shown)
VH: QVQLQQSGAELAKSGASVKMSCKASGYIFTSYWLHWVKQRPGQGLEWIGYINPNTGYTNYSQKFKDKATLTADKSSSTAYMQLSSLTSEDSAVYYCAREYGNYNYPLDYWGQGTSVTVSS
VL: DIQMTQSPASLSASVGETVTITCRASENIYGYLAWYQQKQGKSPQLLVFNAKNLVEGVPSRFSGSGSGTQFSLKINSLQPEDFGSYYCQHHYGTPYTFGGGTKLEIK
notes: Murine monoclonal antibody purified from hybridoma supernatant; also called murine anti-CEA antibody BGA7592
What does the source list for B4?
Kd [8]: 120 nM; Kd [9]: 150 nM
